The values below come from the Human Domainome abundance scans (Beltran et al. 2025).

± gives the uncertainty stated by the source.

The data set is described as follows: abundance fitness (aPCA) (normalised: wild type 0, dead -1); higher = more abundant; growth selection in yeast, the domain comes from the species named. The following applies: Homo sapiens.
The substance “Scaffold attachment factor B2 R59T, Q14151” yielded an abundance fitness of -0.223 ± 0.15.

Consider “Scaffold attachment factor B2 R59V, Q14151”, for which the abundance fitness is -0.496 ± 0.097.

Regarding “Scaffold attachment factor B2 R59W, Q14151”, the abundance fitness is -1.25 ± 0.15.

“Scaffold attachment factor B2 S31A, Q14151” gave an abundance fitness of -0.051 ± 0.1.

With “Scaffold attachment factor B2 S31C, Q14151”, the abundance fitness is -0.415 ± 0.16.

The substance “Scaffold attachment factor B2 S31D, Q14151” gave an abundance fitness of -0.086 ± 0.12.

Substance “Scaffold attachment factor B2 S31E, Q14151” displayed an abundance fitness of -0.01 ± 0.092.

For “Scaffold attachment factor B2 S31F, Q14151”, the abundance fitness was -0.488 ± 0.16.

“Scaffold attachment factor B2 S31G, Q14151” registered an abundance fitness of -0.208 ± 0.076.

With “Scaffold attachment factor B2 S31H, Q14151”, the abundance fitness was -0.194 ± 0.09.

Consider “Scaffold attachment factor B2 S31K, Q14151”, for which the abundance fitness is -0.221 ± 0.11.

Take “Scaffold attachment factor B2 S31L, Q14151”: the abundance fitness was -0.312 ± 0.1.

On to “Scaffold attachment factor B2 S31M, Q14151”, for which the abundance fitness was -0.341 ± 0.11.

For “Scaffold attachment factor B2 S31N, Q14151”, the abundance fitness was -0.027 ± 0.11.

For “Scaffold attachment factor B2 S31Q, Q14151”, the abundance fitness is -0.311 ± 0.095.

For “Scaffold attachment factor B2 S31T, Q14151”, the abundance fitness was -0.225 ± 0.48.

Regarding “Scaffold attachment factor B2 S31Y, Q14151”, the abundance fitness is -0.629 ± 0.12.

“Scaffold attachment factor B2 S54A, Q14151” returned an abundance fitness of -0.037 ± 0.077.

On to “Scaffold attachment factor B2 S54C, Q14151”, for which the abundance fitness is -0.44 ± 0.14.

“Scaffold attachment factor B2 S54D, Q14151” displayed an abundance fitness of -0.1 ± 0.14.

With “Scaffold attachment factor B2 S54E, Q14151”, the abundance fitness is -0.038 ± 0.11.

“Scaffold attachment factor B2 S54G, Q14151” registered an abundance fitness of -0.101 ± 0.071.

“Scaffold attachment factor B2 S54H, Q14151”: the abundance fitness is -0.191 ± 0.18.

The substance “Scaffold attachment factor B2 S54I, Q14151” returned an abundance fitness of -0.003 ± 0.21.

“Scaffold attachment factor B2 S54K, Q14151” came in with an abundance fitness of 0.031 ± 0.13.

In the case of “Scaffold attachment factor B2 S54L, Q14151”, the abundance fitness is -0.167 ± 0.1.

Regarding “Scaffold attachment factor B2 S54M, Q14151”, the abundance fitness was -0.15 ± 0.2.

“Scaffold attachment factor B2 S54N, Q14151” returned an abundance fitness of -0.223 ± 0.12.

In the case of “Scaffold attachment factor B2 S54Q, Q14151”, the abundance fitness came to 0.042 ± 0.1.

Take “Scaffold attachment factor B2 S54R, Q14151”: the abundance fitness is 0.071 ± 0.074.

For “Scaffold attachment factor B2 S54T, Q14151”, the abundance fitness was 0.073 ± 0.11.

“Scaffold attachment factor B2 S54V, Q14151” came in with an abundance fitness of -0.163 ± 0.078.

On to “Scaffold attachment factor B2 S54W, Q14151”, for which the abundance fitness was -0.261 ± 0.18.

Substance “Scaffold attachment factor B2 S54Y, Q14151” showed an abundance fitness of -0.358 ± 0.27.

In the case of “Scaffold attachment factor B2 T27A, Q14151”, the abundance fitness is -0.164 ± 0.1.

The substance “Scaffold attachment factor B2 T27C, Q14151” had an abundance fitness of -0.112 ± 0.11.

As to “Scaffold attachment factor B2 T27D, Q14151”, the abundance fitness turned out to be 0.024 ± 0.18.

“Scaffold attachment factor B2 T27E, Q14151” displayed an abundance fitness of 0.08 ± 0.21.

On to “Scaffold attachment factor B2 T27G, Q14151”, for which the abundance fitness is -0.128 ± 0.094.

As to “Scaffold attachment factor B2 T27I, Q14151”, the abundance fitness is -0.136 ± 0.19.

The substance “Scaffold attachment factor B2 T27K, Q14151” yielded an abundance fitness of -0.658 ± 0.16.

As to “Scaffold attachment factor B2 T27L, Q14151”, the abundance fitness is -0.074 ± 0.13.

The substance “Scaffold attachment factor B2 T27M, Q14151” returned an abundance fitness of -0.053 ± 0.15.

“Scaffold attachment factor B2 T27Q, Q14151”: the abundance fitness was -0.076 ± 0.19.

As to “Scaffold attachment factor B2 T27R, Q14151”, the abundance fitness is -0.275 ± 0.096.

Regarding “Scaffold attachment factor B2 T27S, Q14151”, the abundance fitness was -0.175 ± 0.13.

“Scaffold attachment factor B2 T27V, Q14151”: the abundance fitness was -0.369 ± 0.15.

“Scaffold attachment factor B2 T27W, Q14151” showed an abundance fitness of -0.514 ± 0.13.

Substance “Scaffold attachment factor B2 T49A, Q14151” yielded an abundance fitness of -0.181 ± 0.089.

As to “Scaffold attachment factor B2 T49C, Q14151”, the abundance fitness is -0.266 ± 0.12.

On to “Scaffold attachment factor B2 T49D, Q14151”, for which the abundance fitness is -0.472 ± 0.13.

The substance “Scaffold attachment factor B2 T49E, Q14151” registered an abundance fitness of -0.26 ± 0.094.

As for “Scaffold attachment factor B2 T49F, Q14151”, the abundance fitness was -0.452 ± 0.1.

“Scaffold attachment factor B2 T49G, Q14151”: the abundance fitness is -0.509 ± 0.075.

Turning to “Scaffold attachment factor B2 T49H, Q14151”, the abundance fitness was -0.647 ± 0.18.

Regarding “Scaffold attachment factor B2 T49I, Q14151”, the abundance fitness was -0.401 ± 0.2.

Consider “Scaffold attachment factor B2 T49K, Q14151”, for which the abundance fitness was -0.788 ± 0.16.

The substance “Scaffold attachment factor B2 T49L, Q14151” yielded an abundance fitness of -0.155 ± 0.089.

The substance “Scaffold attachment factor B2 T49M, Q14151” gave an abundance fitness of -0.606 ± 0.12.

Turning to “Scaffold attachment factor B2 T49N, Q14151”, the abundance fitness was -0.807 ± 0.43.

The substance “Scaffold attachment factor B2 T49P, Q14151” returned an abundance fitness of -0.349 ± 0.084.

Take “Scaffold attachment factor B2 T49Q, Q14151”: the abundance fitness was -0.286 ± 0.11.

“Scaffold attachment factor B2 T49R, Q14151” showed an abundance fitness of -0.766 ± 0.077.

“Scaffold attachment factor B2 T49S, Q14151” displayed an abundance fitness of -0.159 ± 0.087.

“Scaffold attachment factor B2 T49V, Q14151”: the abundance fitness was -0.201 ± 0.07.

“Scaffold attachment factor B2 T49W, Q14151”: the abundance fitness was -0.365 ± 0.1.

With “Scaffold attachment factor B2 T49Y, Q14151”, the abundance fitness was -0.512 ± 0.18.

“Scaffold attachment factor B2 V35A, Q14151” returned an abundance fitness of -0.2 ± 0.074.

For the substance “Scaffold attachment factor B2 V35C, Q14151”, the abundance fitness is -0.565 ± 0.12.

In the case of “Scaffold attachment factor B2 V35D, Q14151”, the abundance fitness is -0.087 ± 0.11.

“Scaffold attachment factor B2 V35E, Q14151” returned an abundance fitness of 0.129 ± 0.083.

Regarding “Scaffold attachment factor B2 V35F, Q14151”, the abundance fitness is -0.448 ± 0.099.

For the substance “Scaffold attachment factor B2 V35G, Q14151”, the abundance fitness is -0.351 ± 0.074.

As to “Scaffold attachment factor B2 V35H, Q14151”, the abundance fitness was -0.57 ± 0.12.

Turning to “Scaffold attachment factor B2 V35L, Q14151”, the abundance fitness is -0.353 ± 0.078.

“Scaffold attachment factor B2 V35M, Q14151” showed an abundance fitness of -0.236 ± 0.12.

Consider “Scaffold attachment factor B2 V35Q, Q14151”, for which the abundance fitness was -0.431 ± 0.1.

As to “Scaffold attachment factor B2 V35R, Q14151”, the abundance fitness is -0.438 ± 0.067.

As for “Scaffold attachment factor B2 V35S, Q14151”, the abundance fitness is -0.184 ± 0.089.

“Scaffold attachment factor B2 V35T, Q14151” had an abundance fitness of -0.075 ± 0.084.

As for “Scaffold attachment factor B2 V35W, Q14151”, the abundance fitness was -0.684 ± 0.083.

In turn, “Scaffold attachment factor B2 V55A, Q14151” had an abundance fitness of -0.052 ± 0.095.

As to “Scaffold attachment factor B2 V55C, Q14151”, the abundance fitness was -0.294 ± 0.12.

“Scaffold attachment factor B2 V55D, Q14151”: the abundance fitness was -0.007 ± 0.1.

As for “Scaffold attachment factor B2 V55E, Q14151”, the abundance fitness was found to be 0.086 ± 0.097.

“Scaffold attachment factor B2 V55F, Q14151” yielded an abundance fitness of -0.748 ± 0.29.

As for “Scaffold attachment factor B2 V55G, Q14151”, the abundance fitness is -0.438 ± 0.076.

In turn, “Scaffold attachment factor B2 V55H, Q14151” yielded an abundance fitness of -0.583 ± 0.15.

For the substance “Scaffold attachment factor B2 V55I, Q14151”, the abundance fitness was -0.668 ± 0.27.

Consider “Scaffold attachment factor B2 V55K, Q14151”, for which the abundance fitness was -0.267 ± 0.094.

Take “Scaffold attachment factor B2 V55L, Q14151”: the abundance fitness was -0.167 ± 0.14.

Substance “Scaffold attachment factor B2 V55M, Q14151” gave an abundance fitness of -0.02 ± 0.23.

On to “Scaffold attachment factor B2 V55P, Q14151”, for which the abundance fitness was -0.643 ± 0.13.

“Scaffold attachment factor B2 V55Q, Q14151” displayed an abundance fitness of -0.173 ± 0.1.

Consider “Scaffold attachment factor B2 V55R, Q14151”, for which the abundance fitness is -0.326 ± 0.075.

“Scaffold attachment factor B2 V55S, Q14151” returned an abundance fitness of -0.496 ± 0.11.
